Test results from patent US20220002389A1 (IMMUNO BIOLOGICAL LABORATORIES, published 2022).

Biological target: HIV-1 BaL strain envelope protein (gp120) on BaL-infected CEM.NKR-CCR5 (NKR24) cells (HIV-1 BaL strain)
Test: cell-based or functional assay

| Binder | IC50 (50% inhibitory concentration) of infection of TZM-bl cells by BaL virus, luciferase RLU; 'Dose at Y = 50' [µg/mL] |
| --- | --- |
| Bcell-1C10 (1C10 antibody of B cell origin) (antibody, human IgG1, kappa, V domains shown) VH: EVQLVESGGGVVQPGRSLRVSCVASGFMFSNYAMHWVRQTAGKGLEWVAIISNDGSDKYYADSVQGRFTVSRDNSQNTLFLQMSGLRPEDSGLYYCARDLDQTIPDLTAPAFEVWGQGTMVTVSS VL: DIVMTQSPLSLAVTPGEPASISCRSSQSLLHSDGNNYLDWYLQKPGQSPQLLIYLTSNRASGVPDRFSGSGSGTDFTLKISRVEAEDVGVYFCMQSLQTWTFGQGTKVEIKR | 0.097 |
| CHO-1C10 (1C10 antibody produced in ExpiCHO-S cells) (antibody, human IgG1, kappa, V domains shown, about 70.3% core fucose-added N-glycan) VH: EVQLVESGGGVVQPGRSLRVSCVASGFMFSNYAMHWVRQTAGKGLEWVAIISNDGSDKYYADSVQGRFTVSRDNSQNTLFLQMSGLRPEDSGLYYCARDLDQTIPDLTAPAFEVWGQGTMVTVSS VL: DIVMTQSPLSLAVTPGEPASISCRSSQSLLHSDGNNYLDWYLQKPGQSPQLLIYLTSNRASGVPDRFSGSGSGTDFTLKISRVEAEDVGVYFCMQSLQTWTFGQGTKVEIKR | 0.0781 |
